According to patent US20260028398A1 (SUZHOU DIMA BIOTECHNOLOGY, published 2026):
Substitutions are numbered along the chain they refer to.

B1: G05 humanized IgG1-type antibody (native structure) (antibody, V domains shown)
VH: EVQLVESGGGLVQPGGSLRLSCAASGFSLTDNGITWVRQAPGKGLEWIGIMTTGGSTYYAGWAKGRFTISRDNSKNTLYLQMNSLRAEDTATYFCTRGYGIHGLWGPGTLVTVSS
VL: DIQMTQSPSSLSASVGDRVTITCQASESISKFLSWYQQKPGKVPKLLIYRASTLASGVPSRFSGSGSGTDFTLTISSLQPEDVATYYCQGYDGSSTTTNYESAFGQGTKLTVL
notes: also called G05-mAb
B2: G09 humanized IgG1-type antibody (native structure) (antibody, V domains shown)
VH: B1 VH with T30S, D31N, M51I, G54T, T57A, T92V, F94Y, T96A
VL: B1 VL with K31N, F32Y, S95A, T96S, T97S, T98S
notes: also called G09-mAb
B3: G07 humanized IgG1-type antibody (native structure) (antibody, V domains shown)
VH: B1 VH with S56T, T92V, F94Y, T96A
VL: B1 VL with I29V
notes: also called G07-mAb
B4: G02 humanized IgG1-type antibody (native structure) (antibody, V domains shown)
VH: EVQLVESGGGLVQPGGSLRLSCTASGFSLSSNAMSWVRQAPGKGLEWIGSIGRSGSTYNANWAKGRFTISRDNSKNTVYLQMNSLRAEDTAVYFCAKFTGGVSGGYFSVWGPGTLVTVSS
VL: DIQMTQSPSTLSASVGDRVIINCQASQSVYNNNLLSWYQQKPGKAPKLLIYAASNLASGVPSRFSGSGSGAEFTLTISSLQPDDFATYYCQGYYGGAICAFGQGTKLTVL
B5: G05 BsAb (GPRC5D&CD3 bispecific antibody) (bispecific antibody)
chain: DIQMTQSPSSLSASVGDRVTITCQASESISKFLSWYQQKPGKVPKLLIYRASTLASGVPSRFSGSGSGTDFTLTISSLQPEDVATYYCQGYDGSSTTTNYESAFGQGTKLTVLGGGGSGGGGSGGGGSEVQLVESGGGLVQPGGSLRLSCAASGFSLTDNGITWVRQAPGKGLEWIGIMTTGGSTYYAGWAKGRFTISRDNSKNTLYLQMNSLRAEDTATYFCTRGYGIHGLWGPGTLVTVSSDKTHTCPPCPAPELLGGPSVFLFPPKPKDTLMISRTPEVTCVVVDVSHEDPEVKFNWYVDGVEVHNAKTKPREEQYNSTYRVVSVLTVLHQDWLNGKEYKCKVSNKALPAPIEKTISKAKGQPREPQVCTLPPSREEMTKNQVSLSCAVKGFYPSDIAVEWESNGQPENNYKTTPPVLDSDGSFFLVSKLTVDKSRWQQGNVFSCSVMHEALHNHYTQKSLSLSPGK
heavy: not shown
light: QAVVTQEPSLTVSPGGTVTLTCGSSTGAVTTSNYANWVQEKPGQAFRGLIGGTNKRAPGTPARFSGSLLGGKAALTLSGAQPEDEAEYYCALWYSNLWVFGGGTKLTVL
notes: not shown: human kappa constant region of vector pTT5-hKappa
B6: G09 BsAb (GPRC5D&CD3 bispecific antibody) (bispecific antibody)
chain: DIQMTQSPSSLSASVGDRVTITCQASESISNYLSWYQQKPGKVPKLLIYRASTLASGVPSRFSGSGSGTDFTLTISSLQPEDVATYYCQGYDGSASSSNYESAFGQGTKLTVLGGGGSGGGGSGGGGSEVQLVESGGGLVQPGGSLRLSCAASGFSLSNNGITWVRQAPGKGLEWIGIITTTGSAYYAGWAKGRFTISRDNSKNTLYLQMNSLRAEDTAVYYCARGYGIHGLWGPGTLVTVSSDKTHTCPPCPAPELLGGPSVFLFPPKPKDTLMISRTPEVTCVVVDVSHEDPEVKFNWYVDGVEVHNAKTKPREEQYNSTYRVVSVLTVLHQDWLNGKEYKCKVSNKALPAPIEKTISKAKGQPREPQVCTLPPSREEMTKNQVSLSCAVKGFYPSDIAVEWESNGQPENNYKTTPPVLDSDGSFFLVSKLTVDKSRWQQGNVFSCSVMHEALHNHYTQKSLSLSPGK
heavy: not shown
light: B5 light
notes: as for B5
B7: G00 BsAb (GPRC5D&CD3 bispecific antibody with the control scFv G00) (bispecific antibody)
chain: QSALTQPASVSGSPGQSITISCTGTSSDVGGYNYVSWYQQHPGKAPKLMIYDVSKRPSGVSNRFSGSKSGNTASLTISGLQAEDEADYYCSSYTRSSTEVFGGGTKLTVLGSRGGGGSGGGGSGGGGSLEMAEVQLVQSGAEVKKPGASVKVSCKASGYTFTSYYMHWVRQAPGQGLEWMGIINPSGGSTSYAQKFQGRVTMTRDTSTSTVYMELSSLRSEDTAVYYCARGGSKKWSGEKWRRENFDYWGQGTLVTVSSDKTHTCPPCPAPELLGGPSVFLFPPKPKDTLMISRTPEVTCVVVDVSHEDPEVKFNWYVDGVEVHNAKTKPREEQYNSTYRVVSVLTVLHQDWLNGKEYKCKVSNKALPAPIEKTISKAKGQPREPQVCTLPPSREEMTKNQVSLSCAVKGFYPSDIAVEWESNGQPENNYKTTPPVLDSDGSFFLVSKLTVDKSRWQQGNVFSCSVMHEALHNHYTQKSLSLSPGK
heavy: not shown
light: B5 light
notes: also called GOO; not shown: human kappa constant region of vector pTT5-hKappa
B8: G07 BsAb (GPRC5D&CD3 bispecific antibody) (bispecific antibody)
chain: B5 chain with I29V, S184T, T220V, F222Y, T224A
heavy: not shown
light: B5 light
notes: as for B5
B9: G02 scFv-hFc humanized IgG1 format antibody (Fc fusion)
chain: DIQMTQSPSTLSASVGDRVIINCQASQSVYNNNLLSWYQQKPGKAPKLLIYAASNLASGVPSRFSGSGSGAEFTLTISSLQPDDFATYYCQGYYGGAICAFGQGTKLTVLGGGGSGGGGSGGGGSEVQLVESGGGLVQPGGSLRLSCTASGFSLSSNAMSWVRQAPGKGLEWIGSIGRSGSTYNANWAKGRFTISRDNSKNTVYLQMNSLRAEDTAVYFCAKFTGGVSGGYFSVWGPGTLVTVSS
notes: not shown: human IgG1 Fc (hFc) of the scFv-hFc vector
B10: G05 scFv-hFc humanized IgG1 format antibody (Fc fusion)
chain: DIQMTQSPSSLSASVGDRVTITCQASESISKFLSWYQQKPGKVPKLLIYRASTLASGVPSRFSGSGSGTDFTLTISSLQPEDVATYYCQGYDGSSTTTNYESAFGQGTKLTVLGGGGSGGGGSGGGGSEVQLVESGGGLVQPGGSLRLSCAASGFSLTDNGITWVRQAPGKGLEWIGIMTTGGSTYYAGWAKGRFTISRDNSKNTLYLQMNSLRAEDTATYFCTRGYGIHGLWGPGTLVTVSS
notes: as for B9
B11: G07 scFv-hFc humanized IgG1 format antibody (Fc fusion)
chain: B10 chain with I29V, S184T, T220V, F222Y, T224A
notes: as for B9
B12: G09 scFv-hFc humanized IgG1 format antibody (Fc fusion)
chain: DIQMTQSPSSLSASVGDRVTITCQASESISNYLSWYQQKPGKVPKLLIYRASTLASGVPSRFSGSGSGTDFTLTISSLQPEDVATYYCQGYDGSASSSNYESAFGQGTKLTVLGGGGSGGGGSGGGGSEVQLVESGGGLVQPGGSLRLSCAASGFSLSNNGITWVRQAPGKGLEWIGIITTTGSAYYAGWAKGRFTISRDNSKNTLYLQMNSLRAEDTAVYYCARGYGIHGLWGPGTLVTVSS
notes: as for B9
B13: control antibody G00 (MCARH109) as scFv-hFc IgG1 format antibody (Fc fusion)
chain: QSALTQPASVSGSPGQSITISCTGTSSDVGGYNYVSWYQQHPGKAPKLMIYDVSKRPSGVSNRFSGSKSGNTASLTISGLQAEDEADYYCSSYTRSSTEVFGGGTKLTVLGSRGGGGSGGGGSGGGGSLEMAEVQLVQSGAEVKKPGASVKVSCKASGYTFTSYYMHWVRQAPGQGLEWMGIINPSGGSTSYAQKFQGRVTMTRDTSTSTVYMELSSLRSEDTAVYYCARGGSKKWSGEKWRRENFDYWGQGTLVTVSS
notes: also called GOO; G00 scFv-hFc; not shown: human IgG1 Fc (hFc) of the scFv-hFc vector

These binders were tested against T1, human GPRC5D (human, UniProt Q9NZD1 1-345) (assay: flow cytometry, IgG1 antibody titrated on K562-GPRC5D cells).
T1 construct: whole, on cells; Target always presented on cells (K562-GPRC5D, RPMI 8226, MM.1S, NCI-H929); also called GPRC5D protein
T1 sequence (Q9NZD1 whole entry): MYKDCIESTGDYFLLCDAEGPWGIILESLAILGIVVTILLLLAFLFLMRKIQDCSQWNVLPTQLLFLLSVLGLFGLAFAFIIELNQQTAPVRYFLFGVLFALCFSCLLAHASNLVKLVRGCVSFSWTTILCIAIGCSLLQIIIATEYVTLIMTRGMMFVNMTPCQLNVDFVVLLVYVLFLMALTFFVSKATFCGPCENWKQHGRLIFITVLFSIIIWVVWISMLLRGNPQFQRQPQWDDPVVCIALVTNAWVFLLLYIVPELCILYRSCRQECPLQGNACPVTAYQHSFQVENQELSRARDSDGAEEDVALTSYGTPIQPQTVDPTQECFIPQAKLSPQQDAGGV
B1: binds. B2: binds. B3: binds. B4: binds.

Each binder was assayed against T1, human GPRC5D (assay: flow cytometry, bispecific antibody titrated on NCI-H929 cells, APC anti-human IgG).
Method: NCI-H929 and Jurkat cells were cultured for 48 hours, counted, and plated at a density of 2×10⁵ cells in 96-well V-bottom plates. The bispecific antibodies were serially diluted in PBS, with Talquetamab used as a positive control. The starting concentration was 100 μg/ml, followed by 1:5, 1:2, 1:2, 1:2, 1:2, 1:2, 1:2, 1:2 serial dilutions, resulting in […] for testing. 100 μl of proteins was added to each well with 200,000 cells. The BsAb was incubated with cells at 4° C. for 1 hour, washed three times with PBS and 0.2% FBS, and then APC-conjugated anti-human IgG mAb was added to each well. The cells were incubated with the secondary antibody for 1 hour at 4° C., washed three times again with PBS and 0.2% FBS, and then analyzed using flow cytometry.
B5: binds. B6: binds. B7: binds. B8: binds.

What follows are binders tested against T1, human GPRC5D (assay: flow cytometry, scFv-hFc at 20 ug/ml on MM.1S and NCI-H929 cells).
B9: binds. B10: binds. B11: binds. B12: binds.

What follows are binders tested against T1, human GPRC5D (assay: flow cytometry, scFv-hFc titrated on K562-GPRC5D and RPMI 8226 cells; G00 told only as the weaker comparator).
B13: binds.
